Experimental findings from doi:10.1101/2023.01.08.523187 (bioRxiv, 2023) are described below.

The target in experiment [1] is HER2 on HER2+ SK-OV-3 ovarian cancer cells (Homo sapiens, SK-OV-3 cells, UniProt P04626). The experiment can be described thus: ELISA. Background: In an ELISA, binding on a coated surface is turned into a signal by an enzyme label.
In experiment [2] the target is Canine HER2 (Canis lupus familiaris, UniProt O18735). The experiment can be described thus: SPR. For orientation: SPR reads the build-up and loss of mass on a sensor chip optically.
For experiment [3], the target named is Wildtype HER2 domain IV fragment (residues 510-629 of human HER2) (Homo sapiens, UniProt P04626). As to the kind of experiment: SPR.

B1: Candidate 2 (de novo designed HCDR3, IgG1 mAb) (antibody, V domains shown)
VH: EVQLVESGGGLVQPGGSLRLSCAASGFNIKDTYIHWVRQAPGKGLEWVARIYPTNGYTRYADSVKGRFTISADTSKNTAYLQMNSLRAEDTAVYYCARYYYGFYYFDYWGQGTLVTVSS
VL: not shown
Consider B1, for which the “fold change of EC50 against trastuzumab” value in experiment [1] was about 3 fold. Moreover, the binding result in experiment [2] is reported as “binds”.

B2: Candidate 3 (de novo designed HCDR3, IgG1 mAb) (antibody, V domains shown)
VH: EVQLVESGGGLVQPGGSLRLSCAASGFNIKDTYIHWVRQAPGKGLEWVARIYPTNGYTRYADSVKGRFTISADTSKNTAYLQMNSLRAEDTAVYYCARWGNYYYYMDYWGQGTLVTVSS
VL: not shown
B2: the binding result in experiment [3] is on record as “binds”.
